The record followed here is article PMC3443289.

The target in the assay is HIV-1_(JR-FL) Env(−)ΔCT glycoprotein (uncleaved, cytoplasmic tail-truncated envelope glycoprotein precursor) (HIV-1 (isolate JR-FL)). Nature of the assay: cryo-EM structure.

For the substance “HIV-1_(JR-FL) Env(−)ΔCT glycoprotein (uncleaved, cytoplasmic tail-truncated envelope glycoprotein precursor) (natural protein)”, the stoichiometry N is 3.
